Source: article PMC3897377, “Utilizing Nanobody Technology to Target Non-Immunodominant Domains of VAR2CSA” (PLoS ONE, 2014)

B1: Nb09 (VHH)
VHH: QVQLQESGGGLVQAGGSLRLSCAASGRTFSNYGMGWFRQTPEKERDLLAAVTWSGGRTYYADSVKGRFTISRDNAKNTVYLQMNSLKPEDTAVYYCAAGELFYSDYGPEGEWDYWGQGTQVTVSS
notes: from an alpaca immunized with full-length VAR2CSA; pHEN6c vector; also called Nanobody 09; VHH; source: E. coli WK6, periplasmic extract, purified (HisTrap); not shown: His6, C-terminal, kept
B2: Nb04 (VHH)
VHH: QVQLQESGGGLAQPGGSLRLSCTASGRIYRMAWFRQAPGKERELVASITHIGATNYADSVKGRFTISRDNFKNTMYLQMNDLKPEDTAVYYCNAASSWGKGTQVTVSS
notes: from an alpaca immunized with full-length VAR2CSA; pHEN6c vector; also called Nanobody 04; VHH; source: E. coli WK6, periplasmic extract, purified (HisTrap); not shown: His6, C-terminal, kept

Tests used:
[1] = molecular target: T1, DBL1-ID2a protein of VAR2CSA (containing minimal CSA-binding region), baculovirus-produced (Plasmodium falciparum FCR3 (assumed for …, UniProt Q6UDW7, strain)); experiment: far-Western, overlay or dot blot; Western blot: recombinant VAR2CSA domain (0,4 µg/lane) run NON-REDUCED on SDS gel, blotted to nitrocellulose, probed with 50 nM Nb in TBST; rabbit anti-camel and HRP anti-rabbit; conditions: both partners purified
T1 construct: DBL1-ID2a; source: baculovirus-produced

[2] = molecular target: T2, ID1–ID2a minimal CSA-binding region of VAR2CSA, produced in Schneider 2 (S2) cells (Plasmodium falciparum FCR3, UniProt Q6UDW7, strain); experiment: ELISA; recombinant VAR2CSA protein or domain (50 nM in PBS) coated on MaxiSorp plates overnight at 4°C; Nb 50 nM in 1% skim milk in PBS, 90 min RT; detected with rabbit anti-camel and HRP anti-rabbit, OD 490 nm after 20 min; conditions: both partners purified
T2 construct: ID1–ID2a region; also called ID1–ID2a (S2); source: Schneider 2 (S2) cells

[3] = molecular target: T3, VAR2CSA DBL6 domain, baculovirus-produced (Plasmodium falciparum FCR3, UniProt Q6UDW7, strain); experiment: as above; conditions: both partners purified
T3 construct: DBL6 domain; also called DBL6ε; source: baculovirus expression system, as described in [11], [20]

[4] = molecular target: T4, DBL1-ID2a of VAR2CSA of the heterologous 3D7 parasite line (Plasmodium falciparum 3D7, UniProt Q8I639, strain); experiment: as above; conditions: both partners purified
T4 construct: VAR2CSA, P. falciparum strain 3D7; also called 3D7 DBL1-ID2a; source: baculovirus expression system

[5] = molecular target: T5, VAR2CSA DBL3 domain, baculovirus-produced (Plasmodium falciparum FCR3 (implied), UniProt Q6UDW7, strain); experiment: as above; conditions: both partners purified
T5 construct: DBL3 domain; also called DBL3X; source: baculovirus expression system, as described in [11], [20]

[6] = molecular target: T6, ID1–ID2a of VAR2CSA of the heterologous 3D7 parasite line (Plasmodium falciparum 3D7, UniProt Q8I639, strain); experiment: as above; conditions: both partners purified
T6 construct: VAR2CSA, P. falciparum strain 3D7; also called 3D7 ID1–ID2a; source: baculovirus expression system

[7] = molecular target: T7, ID1–ID2a minimal CSA-binding region of VAR2CSA, produced in E. coli (Plasmodium falciparum FCR3, UniProt Q6UDW7, strain); experiment: as above; conditions: both partners purified
T7 construct: ID1–ID2a region; also called ID1–ID2a (coli); source: E. coli

[8] = molecular target: T8, native VAR2CSA on the surface of NF54 infected erythrocytes (Plasmodium falciparum NF54 (VAR2CSA …, UniProt Q8I639, strain)); experiment: flow cytometry on cells; late stage VAR2CSA-expressing IE (FCR3, 7201, NF54) incubated with Nb (0,1 mg/ml), 30 min at 4°C; detected with mouse anti-penta-His and FITC anti-mouse; specific recognition defined by an MFI ratio >1.2; conditions: one partner purified
T8 construct: VAR2CSA of the P. falciparum parasite line NF54, native protein on infected erythrocytes; also called VAR2CSA-expressing IE (NF54); source: endogenous, on P. falciparum NF54-infected erythrocytes

[9] = molecular target: T9, full-length VAR2CSA (FV2) recombinant protein, FCR3 (Plasmodium falciparum FCR3, UniProt Q6UDW7, strain); experiment: ELISA; recombinant VAR2CSA protein or domain (50 nM in PBS) coated on MaxiSorp plates overnight at 4°C; Nb 50 nM in 1% skim milk in PBS, 90 min RT; detected with rabbit anti-camel and HRP anti-rabbit, OD 490 nm after 20 min; conditions: both partners purified
T9 construct: VAR2CSA (PfEMP1 family), Plasmodium falciparum strain FCR3, full-length recombinant protein; also called FV2-FCR3; source: recombinant, purified, expressed as described in [33]

[10] = molecular target: T10, ID1–ID2a minimal CSA-binding region of VAR2CSA, baculovirus-produced (Plasmodium falciparum FCR3, UniProt Q6UDW7, strain); experiment: as above; conditions: both partners purified
T10 construct: VAR2CSA, P. falciparum FCR3; ID1–ID2a region encompassing DBL2X with the flanking parts ID1 and ID2; also called ID1–ID2a (BV); source: baculovirus expression system, as described in [11], [20]

[11] = molecular target: T3, VAR2CSA DBL6 domain, …; experiment: as above; conditions: both partners purified; remark: listed apart in the source

Binder | binding result [1] | binding result [2] | binding result [3] | binding result [4] | binding result [5] | binding result [6] | binding result [7] | binding result [8] | binding result [9] | binding result [10] | binding result [11]
B1 | binds | binds | no binding (tested: 50 nM) | binds | no binding (tested: 50 nM) | binds | binds | binds | binds | binds | 
B2 |  |  |  |  | no binding (tested: 50 nM) |  |  | binds | binds |  | binds
